In US10196454B2, “Anti-PMEL17 antibodies and immunoconjugates” (GENENTECH, INC., priority 2012, dated 2019):

Key:
928mel cells = assay: Live cell staining and FACS with directly labeled antibodies; type: cell-based
Excerpt: The predominance of the N-terminal epitope at the cell surface relative to the cytoplasmic epitope is consistent with stronger FACS signals observed with 17A9 over 77E6. Nevertheless, it appears that some portion of the cytoplasmic region is present at the cell surface to account for the FACS signals observed with 77E6. To address this, live cells were reacted with the 77E6 and 17A9 antibodies that were directly labeled with Alexa Fluors 555 and 488, respectively. […] The binding of the individual antibodies was unaffected by the presence of the other antibody. […] Further, although 17A9 stained all cells uniformly and consistently, 77E6 staining was variable from cell to cell and the overall degree of staining varied across preparations. […] Overall, the uniform and intense reactivity of 17A9 on melanoma cells makes this antibody a good candidate for drug conjugation.

PMEL17 = target: T1, PMEL17 (Homo sapiens, UniProt P40967); assay: Species cross-reactivity by FACS, 293S cells stably transfected with gD tagged PMEL17; type: binding; design: gD tag (N); expressed in transfected cells; conditions: 10 μg/ml antibody
T1 sequence (P40967 25-661): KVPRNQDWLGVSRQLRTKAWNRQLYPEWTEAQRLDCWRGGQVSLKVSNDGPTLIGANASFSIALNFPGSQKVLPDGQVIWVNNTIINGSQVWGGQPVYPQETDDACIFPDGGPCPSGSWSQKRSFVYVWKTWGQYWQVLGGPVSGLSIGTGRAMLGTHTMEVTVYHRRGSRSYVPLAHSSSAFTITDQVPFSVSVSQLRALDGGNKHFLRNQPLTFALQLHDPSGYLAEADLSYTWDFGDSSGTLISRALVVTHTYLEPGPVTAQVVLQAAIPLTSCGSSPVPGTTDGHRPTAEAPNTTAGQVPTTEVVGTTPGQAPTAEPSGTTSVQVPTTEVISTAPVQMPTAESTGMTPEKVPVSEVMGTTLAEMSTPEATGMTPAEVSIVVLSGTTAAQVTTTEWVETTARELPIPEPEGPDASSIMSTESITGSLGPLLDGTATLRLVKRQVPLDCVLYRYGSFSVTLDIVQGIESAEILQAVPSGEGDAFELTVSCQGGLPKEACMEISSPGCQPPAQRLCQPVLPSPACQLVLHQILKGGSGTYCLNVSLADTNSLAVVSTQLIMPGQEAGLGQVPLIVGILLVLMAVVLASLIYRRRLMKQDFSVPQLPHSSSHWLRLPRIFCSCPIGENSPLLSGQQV
Procedure: Antibody 17A9 was tested to determine if it cross-reacts with PMEL17 from species other than human. […] All of the sequences include the signal sequence except for the cynomolgus monkey PMEL17. Residues that are identical among all four species are indicated by asterisks (*). In the region where the rat sequence has a deletion, residues that are identical among the remaining three species are indicated by a plus (+). Binding to each species of PMEL17 was determined by FACS analysis using 293S cells stably transfected with an N-terminal gD tagged PMEL17 (human, cynomolgus monkey, rat, or mouse PMEL17); stained with 10 μg/ml 17A9 antibody; and detected with R-Phycoerythrin conjugated goat anti-mouse antibody.

normal human melanocytes [1] = assay: Toxicity of anti-PMEL17 ADC in normal melanocytes (CellTiter-GloII, five days); type: cell-based; conditions: versus SK-MEL-5 and SK-MEL-23, five days
Procedure: Finally, SK-MEL-5 and SK-MEL-23 melanoma cells, or normal human melanocytes, were incubated with serial dilutions of the 17A9 ADC and five days later cell numbers were determined using CellTiter-GloII.

human PMEL17 [2] = assay: FACS screening of anti-PMEL17 hybridoma antibodies on live cells; type: binding; conditions: parental PC3 cell line
human PMEL17 [3] = target: T2, human PMEL17 (Homo sapiens, UniProt P40967); assay: as above; type: binding; conditions: live melanoma cells, normal human melanocytes, PC3 cell line stably expressing PMEL17 cDNA
T2 construct: endogenous in cells; host or cells: SK-MEL-23, 1300mel, SKMEL5 (ATCC HTB-70), UACC257, normal melanocytes (Invitrogen); also PC3 stably expressing human PMEL17
T2 sequence (P40967 25-469): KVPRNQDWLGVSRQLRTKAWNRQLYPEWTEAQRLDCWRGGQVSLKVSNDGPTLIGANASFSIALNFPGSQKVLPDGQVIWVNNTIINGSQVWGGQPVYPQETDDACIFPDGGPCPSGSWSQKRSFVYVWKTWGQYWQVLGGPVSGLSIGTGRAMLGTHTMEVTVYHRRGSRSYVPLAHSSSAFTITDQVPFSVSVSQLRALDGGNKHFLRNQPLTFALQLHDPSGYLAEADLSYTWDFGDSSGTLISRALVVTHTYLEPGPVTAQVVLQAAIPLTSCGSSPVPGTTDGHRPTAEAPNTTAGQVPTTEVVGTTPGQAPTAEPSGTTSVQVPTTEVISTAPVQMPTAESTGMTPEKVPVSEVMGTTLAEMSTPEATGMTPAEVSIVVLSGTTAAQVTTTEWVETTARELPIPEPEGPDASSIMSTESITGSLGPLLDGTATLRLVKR
T2 sequence (P40967 470-661): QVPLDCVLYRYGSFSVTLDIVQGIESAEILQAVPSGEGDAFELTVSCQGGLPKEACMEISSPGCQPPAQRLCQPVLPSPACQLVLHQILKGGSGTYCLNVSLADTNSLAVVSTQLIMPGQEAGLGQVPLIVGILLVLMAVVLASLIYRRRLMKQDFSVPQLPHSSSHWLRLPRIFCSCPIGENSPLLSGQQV

normal human melanocytes [4] = assay: Flow cytometry of normal human melanocytes and SK-MEL-5 cells; type: binding; conditions: intensity comparable to SK-MEL-5
Excerpt: Normal human melanocytes and SK-MEL-5 melanoma cells were reacted with chimeric 17A9, or no primary antibody, followed by Alexa 488-labeled anti-human IgG and analyzed by flow cytometry.

B1: 17A9 (antibody, listed as Mus musculus, V domains shown)
VH: EVQLQQSGPELVKPGASMKISCKSSGYSFTRYTMNWVKQSHGKNLEWIGVINPYNGGTVYNQKFKGKATLTVDKSSSTAYMELLSLTSEDSAVYYCARTDYDGYAMDYWGQGTSVTVSS
VL: DVQITQSPSYLAASPGETITINCRATKSISKYLAWYQEQPGKTNNLLIYSGSTLQSGIPSRFSGSGSGTDFTLTISSLEPEDFAMYYCQQHNEYPYTFGSGTKLEIK
binding in the presence of the other labeled antibody (competition) (928mel cells; 77E6 and 17A9 alone or both together, FACS): unaffected | cell surface staining of live-labeled cells (928mel cells; Alexa Fluor labeled antibodies): uniform cell surface staining | binding to human PMEL17 by FACS (PMEL17): bind | IC50 on normal melanocytes relative to melanoma cell lines (normal human melanocytes [1]): ~100 fold | FACS reactivity with parental PC3 cell line (human PMEL17 [2]): not the parental PC3 cell line | FACS reactivity with live cells expressing PMEL17 (human PMEL17 [3]): reacted strongly | FACS staining of cultured normal human melanocytes (normal human melanocytes [4]): FACS+
